Experimental data from patent US20240018252A1 (Pfizer, published 2024).

What was measured:
human BCMA [1] = target: T1, human BCMA (human, UniProt Q02223 1-54); assay: SPR, immobilised IgG, 25° C
T1 construct: also called huBCMA; hBCMA
T1 sequence: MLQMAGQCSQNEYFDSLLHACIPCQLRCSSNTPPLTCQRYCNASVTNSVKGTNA

cyBCMA [2] = target: T2, cyBCMA (cynomolgus, UniProt A0A2K5UD97 1-53); assay: SPR, immobilised IgG, 25° C
T2 construct: Soluble analyte in SPR; construct not described; also called cyno BCMA

human BCMA [3] = target: T1, human BCMA; assay: SPR, immobilised IgG, 37° C
cyBCMA [4] = target: T2, cyBCMA; assay: SPR, immobilised IgG, 37° C

T2 sequence (A0A2K5UD97 entry or part of it): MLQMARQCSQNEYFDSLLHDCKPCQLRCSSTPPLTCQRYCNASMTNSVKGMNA

Binder	T½ (human BCMA [1])	T½ (cyBCMA [2])	T½ (human BCMA [3])	T½ (cyBCMA [4])
L1.GDF/L3.KW/H3.AL (antibody, V domains shown, IgG in the assay) VH: EVQLLESGGGLVQPGGSLRLSCAASGFTFGSYAMTWVRQAPGKGLEWVSAISGSGGNTFYADSVKGRFTISRDNSKNTLYLQMNSLRAEDTAVYYCARVSPIAALMDYWGQGTLVTVSS VL: EIVLTQSPGTLSLSPGERATLSCRASQSVGDFYLAWYQQKPGQAPRLLIYGASSRATGIPDRFSGSGSGTDFTLTISRLEPEDFAVYYCKHYGWPPSFTFGQGTKVEIK	2.96 min	0.6 min	–	–
L1.LGF/L3.KW/H3.AL (antibody, V domains shown, IgG in the assay) VH: EVQLLESGGGLVQPGGSLRLSCAASGFTFGSYAMTWVRQAPGKGLEWVSAISGSGGNTFYADSVKGRFTISRDNSKNTLYLQMNSLRAEDTAVYYCARVSPIAALMDYWGQGTLVTVSS VL: EIVLTQSPGTLSLSPGERATLSCRASQSLGSFYLAWYQQKPGQAPRLLIYGASSRATGIPDRFSGSGSGTDFTLTISRLEPEDFAVYYCKHYGWPPSFTFGQGTKVEIK	9.4 min	1 min	–	–
P6E01/H3.AQ (antibody, V domains shown, IgG in the assay) VH: EVQLLESGGGLVQPGGSLRLSCAASGFTFGSYAMTWVRQAPGKGLEWVSAISGSGGNTFYADSVKGRFTISRDNSKNTLYLQMNSLRAEDTAVYYCARVSPIAAQMDYWGQGTLVTVSS VL: not shown	33.5 min	–	–	–
L1.GDF/L3.NY/P6E01 (antibody, V domains shown, IgG in the assay) VH: EVQLLESGGGLVQPGGSLRLSCAASGFTFGSYAMTWVRQAPGKGLEWVSAISGSGGNTFYADSVKGRFTISRDNSKNTLYLQMNSLRAEDTAVYYCARVSPIASGMDYWGQGTLVTVSS VL: EIVLTQSPGTLSLSPGERATLSCRASQSVGDFYLAWYQQKPGQAPRLLIYGASSRATGIPDRFSGSGSGTDFTLTISRLEPEDFAVYYCQHYNYPPSFTFGQGTKVEIK	1.95 min	1.5 min	–	–
L1.LGF/L3.KW/H3.AQ (antibody, V domains shown, IgG in the assay) VH: EVQLLESGGGLVQPGGSLRLSCAASGFTFGSYAMTWVRQAPGKGLEWVSAISGSGGNTFYADSVKGRFTISRDNSKNTLYLQMNSLRAEDTAVYYCARVSPIAAQMDYWGQGTLVTVSS VL: EIVLTQSPGTLSLSPGERATLSCRASQSLGSFYLAWYQQKPGQAPRLLIYGASSRATGIPDRFSGSGSGTDFTLTISRLEPEDFAVYYCKHYGWPPSFTFGQGTKVEIK	12.1 min	3.3 min	–	–
L1.GDF/L3.NY/H3.AP (antibody, V domains shown, IgG in the assay) VH: EVQLLESGGGLVQPGGSLRLSCAASGFTFGSYAMTWVRQAPGKGLEWVSAISGSGGNTFYADSVKGRFTISRDNSKNTLYLQMNSLRAEDTAVYYCARVSPIAAPMDYWGQGTLVTVSS VL: EIVLTQSPGTLSLSPGERATLSCRASQSVGDFYLAWYQQKPGQAPRLLIYGASSRATGIPDRFSGSGSGTDFTLTISRLEPEDFAVYYCQHYNYPPSFTFGQGTKVEIK	8.21 min	1.6 min	–	–
L1.GDF/L3.KW/H3.AP (antibody, V domains shown, IgG in the assay) VH: EVQLLESGGGLVQPGGSLRLSCAASGFTFGSYAMTWVRQAPGKGLEWVSAISGSGGNTFYADSVKGRFTISRDNSKNTLYLQMNSLRAEDTAVYYCARVSPIAAPMDYWGQGTLVTVSS VL: EIVLTQSPGTLSLSPGERATLSCRASQSVGDFYLAWYQQKPGQAPRLLIYGASSRATGIPDRFSGSGSGTDFTLTISRLEPEDFAVYYCKHYGWPPSFTFGQGTKVEIK	2.51 min	0.6 min	–	–
L1.GDF/L3.KW/H3.AQ (antibody, V domains shown, IgG in the assay) VH: EVQLLESGGGLVQPGGSLRLSCAASGFTFGSYAMTWVRQAPGKGLEWVSAISGSGGNTFYADSVKGRFTISRDNSKNTLYLQMNSLRAEDTAVYYCARVSPIAAQMDYWGQGTLVTVSS VL: EIVLTQSPGTLSLSPGERATLSCRASQSVGDFYLAWYQQKPGQAPRLLIYGASSRATGIPDRFSGSGSGTDFTLTISRLEPEDFAVYYCKHYGWPPSFTFGQGTKVEIK	3.32 min	2 min	–	–
L1.LGF/L3.KW/H3.AP (antibody, V domains shown, IgG in the assay) VH: EVQLLESGGGLVQPGGSLRLSCAASGFTFGSYAMTWVRQAPGKGLEWVSAISGSGGNTFYADSVKGRFTISRDNSKNTLYLQMNSLRAEDTAVYYCARVSPIAAPMDYWGQGTLVTVSS VL: EIVLTQSPGTLSLSPGERATLSCRASQSLGSFYLAWYQQKPGQAPRLLIYGASSRATGIPDRFSGSGSGTDFTLTISRLEPEDFAVYYCKHYGWPPSFTFGQGTKVEIK	5.1 min	0.7 min	–	–
L3.PY/L1.PS/P6E01 (antibody, V domains shown, IgG in the assay) VH: EVQLLESGGGLVQPGGSLRLSCAASGFTFGSYAMTWVRQAPGKGLEWVSAISGSGGNTFYADSVKGRFTISRDNSKNTLYLQMNSLRAEDTAVYYCARVSPIASGMDYWGQGTLVTVSS VL: EIVLTQSPGTLSLSPGERATLSCRASQSVSSSYPSWYQQKPGQAPRLLIYGASSRATGIPDRFSGSGSGTDFTLTISRLEPEDFAVYYCQHYPYPPSFTFGQGTKVEIK	–	–	10.2 min	1.91 min
L1.GDF/L3.NY/H3.AQ (antibody, V domains shown, IgG in the assay) VH: EVQLLESGGGLVQPGGSLRLSCAASGFTFGSYAMTWVRQAPGKGLEWVSAISGSGGNTFYADSVKGRFTISRDNSKNTLYLQMNSLRAEDTAVYYCARVSPIAAQMDYWGQGTLVTVSS VL: EIVLTQSPGTLSLSPGERATLSCRASQSVGDFYLAWYQQKPGQAPRLLIYGASSRATGIPDRFSGSGSGTDFTLTISRLEPEDFAVYYCQHYNYPPSFTFGQGTKVEIK	16 min	8.5 min	–	–
L1.LGF/L3.KW/P6E01 (antibody, V domains shown, IgG in the assay) VH: EVQLLESGGGLVQPGGSLRLSCAASGFTFGSYAMTWVRQAPGKGLEWVSAISGSGGNTFYADSVKGRFTISRDNSKNTLYLQMNSLRAEDTAVYYCARVSPIASGMDYWGQGTLVTVSS VL: EIVLTQSPGTLSLSPGERATLSCRASQSLGSFYLAWYQQKPGQAPRLLIYGASSRATGIPDRFSGSGSGTDFTLTISRLEPEDFAVYYCKHYGWPPSFTFGQGTKVEIK	1.53 min	0.6 min	–	–
L3.PY/L3.KF/P6E01 (antibody, V domains shown, IgG in the assay) VH: EVQLLESGGGLVQPGGSLRLSCAASGFTFGSYAMTWVRQAPGKGLEWVSAISGSGGNTFYADSVKGRFTISRDNSKNTLYLQMNSLRAEDTAVYYCARVSPIASGMDYWGQGTLVTVSS VL: EIVLTQSPGTLSLSPGERATLSCRASQSVSSSYLAWYQQKPGQAPRLLIYGASSRATGIPDRFSGSGSGTDFTLTISRLEPEDFAVYYCKFYPYPPSFTFGQGTKVEIK	–	–	5.56 min	1.39 min
L1.LGF/L3.NY/H3.AL (antibody, V domains shown, IgG in the assay) VH: EVQLLESGGGLVQPGGSLRLSCAASGFTFGSYAMTWVRQAPGKGLEWVSAISGSGGNTFYADSVKGRFTISRDNSKNTLYLQMNSLRAEDTAVYYCARVSPIAALMDYWGQGTLVTVSS VL: EIVLTQSPGTLSLSPGERATLSCRASQSLGSFYLAWYQQKPGQAPRLLIYGASSRATGIPDRFSGSGSGTDFTLTISRLEPEDFAVYYCQHYNYPPSFTFGQGTKVEIK	11.9 min	0.8 min	–	–
P6E01/P6E01 (antibody, V domains shown, IgG in the assay; also called P6E01_VHVL) VH: EVQLLESGGGLVQPGGSLRLSCAASGFTFGSYAMTWVRQAPGKGLEWVSAISGSGGNTFYADSVKGRFTISRDNSKNTLYLQMNSLRAEDTAVYYCARVSPIASGMDYWGQGTLVTVSS VL: not shown	2.8 min	–	–	–
L3.PY/L1.PS/H3.TAQ (antibody, V domains shown, IgG in the assay) VH: EVQLLESGGGLVQPGGSLRLSCAASGFTFGSYAMTWVRQAPGKGLEWVSAISGSGGNTFYADSVKGRFTISRDNSKNTLYLQMNSLRAEDTAVYYCTRVSPIAAQMDYWGQGTLVTVSS VL: EIVLTQSPGTLSLSPGERATLSCRASQSVSSSYPSWYQQKPGQAPRLLIYGASSRATGIPDRFSGSGSGTDFTLTISRLEPEDFAVYYCQHYPYPPSFTFGQGTKVEIK	–	–	4.7 min	2.09 min
L1.GDF/L3.PY/H3.AQ (antibody, V domains shown, IgG in the assay) VH: EVQLLESGGGLVQPGGSLRLSCAASGFTFGSYAMTWVRQAPGKGLEWVSAISGSGGNTFYADSVKGRFTISRDNSKNTLYLQMNSLRAEDTAVYYCARVSPIAAQMDYWGQGTLVTVSS VL: EIVLTQSPGTLSLSPGERATLSCRASQSVGDFYLAWYQQKPGQAPRLLIYGASSRATGIPDRFSGSGSGTDFTLTISRLEPEDFAVYYCQHYPYPPSFTFGQGTKVEIK	0.86 min	0.7 min	–	–
L3.PY/L3.KY/P6E01 (antibody, V domains shown, IgG in the assay) VH: EVQLLESGGGLVQPGGSLRLSCAASGFTFGSYAMTWVRQAPGKGLEWVSAISGSGGNTFYADSVKGRFTISRDNSKNTLYLQMNSLRAEDTAVYYCARVSPIASGMDYWGQGTLVTVSS VL: EIVLTQSPGTLSLSPGERATLSCRASQSVSSSYLAWYQQKPGQAPRLLIYGASSRATGIPDRFSGSGSGTDFTLTISRLEPEDFAVYYCKYYPYPPSFTFGQGTKVEIK	–	–	10.7 min	2.3 min
L1.GDF/L3.NY/H3.AL (antibody, V domains shown, IgG in the assay) VH: EVQLLESGGGLVQPGGSLRLSCAASGFTFGSYAMTWVRQAPGKGLEWVSAISGSGGNTFYADSVKGRFTISRDNSKNTLYLQMNSLRAEDTAVYYCARVSPIAALMDYWGQGTLVTVSS VL: EIVLTQSPGTLSLSPGERATLSCRASQSVGDFYLAWYQQKPGQAPRLLIYGASSRATGIPDRFSGSGSGTDFTLTISRLEPEDFAVYYCQHYNYPPSFTFGQGTKVEIK	2.87 min	0.5 min	–	–
L3.PY/L1.PS/H3.YA (antibody, V domains shown, IgG in the assay) VH: EVQLLESGGGLVQPGGSLRLSCAASGFTFGSYAMTWVRQAPGKGLEWVSAISGSGGNTFYADSVKGRFTISRDNSKNTLYLQMNSLRAEDTAVYYCARVSPIYAGMDYWGQGTLVTVSS VL: EIVLTQSPGTLSLSPGERATLSCRASQSVSSSYPSWYQQKPGQAPRLLIYGASSRATGIPDRFSGSGSGTDFTLTISRLEPEDFAVYYCQHYPYPPSFTFGQGTKVEIK	–	–	1.28 min	1.16 min
